Test results from publication PMC5952411 (EBioMedicine, 2018).
Changes are numbered by the printed parent chain.

B1: Pup^E (prokaryotic ubiquitin-like protein Pup with its C-terminal glutamine converted to glutamate), biotinylated (natural protein)
chain: MAQEQTKRGGGGGDDDDIAGSTAAGQERREKLTEETDDLLDEIDDVLEENAEDFVRAYVQKGGE
modifications: biotinylated with EZLink Sulfo-NHS-LC-Biotin (sites not given)

Experiments:
Test in all cases: BLI
[1] = biological target: Pup^E (prokaryotic ubiquitin-like protein Pup with its C-terminal glutamine converted to glutamate), biotinylated (M. tuberculosis) (UniProt P9WHN5)
[2] = biological target: T1, M. tuberculosis PafA (Pup ligase), wild type (M. tuberculosis H37Rv, UniProt P9WNU7 1-452)
T1 sequence: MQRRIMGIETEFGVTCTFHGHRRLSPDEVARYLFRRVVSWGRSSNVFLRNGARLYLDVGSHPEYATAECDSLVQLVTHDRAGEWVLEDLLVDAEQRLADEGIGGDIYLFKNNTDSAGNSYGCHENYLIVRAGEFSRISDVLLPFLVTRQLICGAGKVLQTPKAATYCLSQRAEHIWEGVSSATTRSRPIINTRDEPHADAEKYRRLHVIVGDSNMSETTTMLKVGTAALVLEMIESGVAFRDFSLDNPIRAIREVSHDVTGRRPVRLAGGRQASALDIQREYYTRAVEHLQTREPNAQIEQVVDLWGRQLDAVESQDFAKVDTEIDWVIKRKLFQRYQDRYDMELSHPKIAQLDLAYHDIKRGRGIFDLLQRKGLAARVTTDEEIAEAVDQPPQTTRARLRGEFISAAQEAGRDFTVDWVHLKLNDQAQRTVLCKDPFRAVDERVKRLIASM

[3] = biological target: T2, M. tuberculosis PafA S119A (M. tuberculosis H37Rv, UniProt P9WNU7 1-452, S119A)
T2 sequence: T1 sequence with S119A

Molecule	fold KD against WT PafA [1] [fold]	binding result [2]	binding result [3]
M. tuberculosis PafA pre-incubated with AEBSF (AEBSF covalently bound at S119) (from UniProt P9WNU7 1-452) (enzyme)	2		
B1		binds	binds
